Patent US20250223358A1 (ANTENGENE BIOLOGICS, published 2025)
Like-named read-outs stand apart in the source and are kept apart here.

Legend:
[1] = target: T1, human CD3 (human, UniProt P07766 23-207; P04234 22-171; P09693 23-182); assay: cell-based or functional assay
[2] = target: T2, cynomolgus CD3 (cynomolgus (Macaca fascicularis), UniProt Q95LI5 22-198; Q95LI8 22-171; Q95LI7 23-181); assay: FACS on 293T-cynoCD3mix cells
T2 construct: whole, on cells; composition of the 'mix' not defined; also called cynoCD3
T2 sequence (Q95LI5 22-198, chain 1 of 3): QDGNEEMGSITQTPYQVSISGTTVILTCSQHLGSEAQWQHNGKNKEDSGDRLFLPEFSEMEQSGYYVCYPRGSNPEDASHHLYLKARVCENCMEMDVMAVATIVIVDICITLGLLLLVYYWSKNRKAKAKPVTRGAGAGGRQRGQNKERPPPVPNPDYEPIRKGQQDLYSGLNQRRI
T2 sequence (Q95LI8 22-171, chain 2 of 3): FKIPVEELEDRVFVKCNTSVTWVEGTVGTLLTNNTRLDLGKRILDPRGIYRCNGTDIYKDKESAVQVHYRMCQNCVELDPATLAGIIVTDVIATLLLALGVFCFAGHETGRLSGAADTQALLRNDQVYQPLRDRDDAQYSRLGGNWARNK
T2 sequence (Q95LI7 23-181, chain 3 of 3): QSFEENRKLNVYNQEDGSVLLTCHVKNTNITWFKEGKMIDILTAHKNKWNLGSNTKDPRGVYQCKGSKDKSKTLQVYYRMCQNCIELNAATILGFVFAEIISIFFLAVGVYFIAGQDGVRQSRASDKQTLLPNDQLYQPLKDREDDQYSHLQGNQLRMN

[3] = target: T1, human CD3; assay: FACS on Jurkat cells
[4] = target: T1, human CD3; assay: FACS on Jurkat cells; remark: listed apart in the source
[5] = target: T1, human CD3; assay: cell-based or functional assay; remark: listed apart in the source
[6] = target: T1, human CD3; assay: cell-based or functional assay; remark: listed apart in the source
[7] = target: T2, cynomolgus CD3; assay: FACS on 293T-cynoCD3mix cells; remark: listed apart in the source

T1 sequence (P07766 23-207, chain 1 of 3): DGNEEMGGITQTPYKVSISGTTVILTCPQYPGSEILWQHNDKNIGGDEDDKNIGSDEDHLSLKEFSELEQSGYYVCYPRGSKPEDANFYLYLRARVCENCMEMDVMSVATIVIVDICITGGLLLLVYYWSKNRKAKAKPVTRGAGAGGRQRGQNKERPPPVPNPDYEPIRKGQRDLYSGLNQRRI
T1 sequence (P04234 22-171, chain 2 of 3): as the sequence (Q95LI8 22-171, chain 2 of 3) above, with V5I, K15N, V20I, T32S, N33D, N34I, A64T, N74S, L83V, R141H counted along it
T1 sequence (P09693 23-182, chain 3 of 3): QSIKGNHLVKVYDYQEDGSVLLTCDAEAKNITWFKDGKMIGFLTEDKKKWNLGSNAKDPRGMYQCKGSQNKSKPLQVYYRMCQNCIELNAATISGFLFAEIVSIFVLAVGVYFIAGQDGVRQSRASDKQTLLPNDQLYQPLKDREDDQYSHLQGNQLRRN

| Binder | EC50_Fold change (Jurkat-NFAT-luciferase activation, normalized to ch147E11E2) [1] | Top FACS signal_Fold change (Jurkat-NFAT-luciferase activation, normalized to ch147E11E2) [1] | EC50 [2] | Top signal [2] | further results |
| --- | --- | --- | --- | --- | --- |
| hu147E2-L1H3 (antibody, V domains shown, humanized 147E11E2; also called hu14E2-L1H3) VH: EVQLVQSGAEVKKPGSSVKVSCKASGYTFTSYWMHWVRQAPGQGLEWMGNINPSNGATNYNEKFKSRVTLTVDKSTSTAYMELSSLRSEDTAVYYCARDRSSQYYFDYWGQGTTVTVSS VL: DIVMTQSPDSLAVSLGERATINCKSSQSLLNSRSRKNYLAWYQQKPGQPPKLLIYWASTRESGVPDRFSGSGSGTDFTLTISSLQAEDVAVYYCTQSYTLRTFGGGTKVEIK | 1.98 fold | 1 fold | 1.51 nM | 19200 |  |
| hu147E2-L3H3 (antibody, V domains shown, humanized 147E11E2; also called hu14E2-L3H3) VH: EVQLVQSGAEVKKPGSSVKVSCKASGYTFTSYWMHWVRQAPGQGLEWMGNINPSNGATNYNEKFKSRVTLTVDKSTSTAYMELSSLRSEDTAVYYCARDRSSQYYFDYWGQGTTVTVSS VL: DIQMTQSPSSLSASVGDRVTITCKSSQSLLNSRSRKNYLAWYQQKPGKAPKLLIYWASTRESGVPSRFSGSGSGTDFTLTISSLQPEDFATYYCTQSYTLRTFGGGTKVEIK | 1.36 fold | 0.68 fold | 1.63 nM | 19000 | EC50 [3]: 0.659 nM; Top FACS signal [3]: 2680 |
| hu147E2-L2H2 (antibody, V domains shown, humanized 147E11E2; also called hu14E2-L2H2) VH: EVQLVQSGAEVKKPGSSVKVSCKASGYTFTSYWMHWVRQAPGQGLEWMGNINPSNGATNYNEKFKSRVTITADKSTSTAYMELSSLRSEDTAVYYCARDRSSQYYFDYWGQGTTVTVSS VL: DIVMTQSPDSLAVSLGERATINCKSSQSLLNSRSRKNYLAWYQQKPGQSPKLLIYWASTRESGVPDRFSGSGSGTDFTLTISSLQAEDVAVYYCTQSYTLRTFGGGTKVEIK | 1.4 fold | 0.9 fold | 1.64 nM | 20500 |  |
| hu147E2-L1H2 (antibody, V domains shown, humanized 147E11E2; also called hu14E2-L1H2) VH: EVQLVQSGAEVKKPGSSVKVSCKASGYTFTSYWMHWVRQAPGQGLEWMGNINPSNGATNYNEKFKSRVTITADKSTSTAYMELSSLRSEDTAVYYCARDRSSQYYFDYWGQGTTVTVSS VL: DIVMTQSPDSLAVSLGERATINCKSSQSLLNSRSRKNYLAWYQQKPGQPPKLLIYWASTRESGVPDRFSGSGSGTDFTLTISSLQAEDVAVYYCTQSYTLRTFGGGTKVEIK |  |  | 2.01 nM | 19700 |  |
| hu147E2-L3H2 (antibody, V domains shown, humanized 147E11E2; also called hu14E2-L3H2) VH: EVQLVQSGAEVKKPGSSVKVSCKASGYTFTSYWMHWVRQAPGQGLEWMGNINPSNGATNYNEKFKSRVTITADKSTSTAYMELSSLRSEDTAVYYCARDRSSQYYFDYWGQGTTVTVSS VL: DIQMTQSPSSLSASVGDRVTITCKSSQSLLNSRSRKNYLAWYQQKPGKAPKLLIYWASTRESGVPSRFSGSGSGTDFTLTISSLQPEDFATYYCTQSYTLRTFGGGTKVEIK | 1.66 fold | 0.76 fold | 1.77 nM | 19200 | EC50 [3]: 0.891 nM; Top FACS signal [3]: 2730 |
| hu147E2-L1H3a (antibody, V domains shown, humanized 147E11E2 with N55Q in HCDR2 (deamidation site removed); also called hu14E2-L1H3a) VH: EVQLVQSGAEVKKPGSSVKVSCKASGYTFTSYWMHWVRQAPGQGLEWMGNINPSQGATNYNEKFKSRVTLTVDKSTSTAYMELSSLRSEDTAVYYCARDRSSQYYFDYWGQGTTVTVSS VL: DIVMTQSPDSLAVSLGERATINCKSSQSLLNSRSRKNYLAWYQQKPGQPPKLLIYWASTRESGVPDRFSGSGSGTDFTLTISSLQAEDVAVYYCTQSYTLRTFGGGTKVEIK |  |  | 1.66 nM | 20700 |  |
| hu40E9-L6H3 (antibody, V domains shown) VH: EVQLVQSGAEVKKPGSSVKVSCKASGYTFSSYVIHWVRQAPGQGLEWMGYINPYNDVIKYNEKFKGRVTLTSDKSTSTAYMELSSLRSEDTAVYYCARDSYYSYDGFAYWGQGTLVTVSS VL: EIVLTQSPDFQSVTPKEKVTITCSASSSVSYMHWYQQKPDQSPKRLIYDTSKLASGVPSRFSGSGSGTDFTLTINSLEAEDAATYYCQQWRSWPPTFGGGTKVEIK |  |  |  |  | EC50 [4]: 0.8 nM; Top FACS signal [4]: 1990; EC50_Fold change (Jurkat-NFAT-luciferase activation, normalized to ch40-C12-C10-E9) [5]: 4.34 fold; Top signal_Fold change (Jurkat-NFAT-luciferase activation, normalized to ch40-C12-C10-E9) [5]: 0.95 fold |
| ch127E2D3 (antibody, V domains shown) VH: QVQLQQPGTELVKPGASVKLSCKASGYTFTSYWMHWVKQRPGEGLEWIGNIYPGSSSINYNEKFKSKATLTVDKSSSTAYMQLSSLTSEDSAVYYCARDRSSQYYFDYWGQGTTLTVSS VL: DIVMSQSPSSLAVSAGEKVTMSCKSSQSLLNSRTRKNYLAWYQQKPGQSPKLLIYWASTRESGVPDRFTGSGSGTDFTLTISSVQAEDLAVYYCTQSYNLRTFGGGTKLEIK |  |  |  |  | EC50 (Jurkat-NFAT-luciferase activation) [6]: 61.7 nM; Top signal (Jurkat-NFAT-luciferase activation) [6]: 337; EC50 [7]: 2.33 nM; Top signal [7]: 46900 |
| ch124E3D6 (antibody, V domains shown) VH: QVQLQQPGTELVKPGASVKLSCKASGYTFTSYWMHWVKQRPGQGLEWIGNINPSNGDTNYNEKFKSKATLTVDKSSSTAYMQLSSLTSEDSAVYYCARDRSSQYYFDYWGQGTTLTVSS VL: DIVMSQSPSSLAVSAGEKVTMSCKSSQSLLNSRTRKNYLAWYQQKPGQSPKLLIYWASTRESGVPDRFTGSGSGTDFTLTISSVQAEDLAVYYCKQSYNLRTFGGGTKLEIK |  |  |  |  | EC50 (Jurkat-NFAT-luciferase activation) [6]: 32.4 nM; Top signal (Jurkat-NFAT-luciferase activation) [6]: 482; EC50 [7]: 2.64 nM; Top signal [7]: 45800 |
| ch140D2B10 (antibody, V domains shown) VH: QVQLQQPGTELVKPGASVKLSCKASGYTFTSYWMHWVKQRPGQGLEWIGNINPSNGESNYNEKFKSKATLTVDKSSSTAYMQLSSLTSEDYAVYYCARDRSSQYYFDYWGQGTTLTVSS VL: DIVMSQSPSSLAVSAGEKVTMSCKSSQSLLNSRTRKNYLAWYQQKPGQSPKLLIYWASTRESGVPDRFTGSGSGTDFTLTISSVQAEDLAVYYCKQSYTLRTFGGGTKLEIK |  |  |  |  | EC50 [7]: 2.81 nM; Top signal [7]: 52900 |
| ch133B4C7 (antibody, V domains shown) VH: QVQLQQPGTELVKPGASVKLSCKASGYTFTSYWMHWVKQRPGQGLEWIGNINPSNGDTNFNEKFKSKATLTVDKSSSTAYMQLSSLTSEDSAVYYCARDRSSQYYFDYWGQGTTLTVSS VL: DIVMSQSPSSLAVSAGEKVTMSCNSSQSLLNSRTRKNYLAWYQQKPGQSPKLLIYWASTRESGVPDRFTGSGSGTDFTLTISSVQAEDLAVYYCKQSYTLRTFGGGTKLEIK |  |  |  |  | EC50 (Jurkat-NFAT-luciferase activation) [6]: 28 nM; Top signal (Jurkat-NFAT-luciferase activation) [6]: 290; EC50 [7]: 2.81 nM; Top signal [7]: 45200 |

More lines, main results first:

| EC50_Fold change (Jurkat-NFAT-luciferase activation, normalized to ch147E11E2) [1] | Top FACS signal_Fold change (Jurkat-NFAT-luciferase activation, normalized to ch147E11E2) [1] | EC50 [2] | Top signal [2] | Binder | further results |
| --- | --- | --- | --- | --- | --- |
| 1.73 fold | 0.87 fold | 1.68 nM | 21100 | hu147E2-L1H3b (antibody, V domains shown, humanized 147E11E2 with N55S in HCDR2 (deamidation site removed); also called hu14E2-L1H3b) VH: EVQLVQSGAEVKKPGSSVKVSCKASGYTFTSYWMHWVRQAPGQGLEWMGNINPSSGATNYNEKFKSRVTLTVDKSTSTAYMELSSLRSEDTAVYYCARDRSSQYYFDYWGQGTTVTVSS VL: DIVMTQSPDSLAVSLGERATINCKSSQSLLNSRSRKNYLAWYQQKPGQPPKLLIYWASTRESGVPDRFSGSGSGTDFTLTISSLQAEDVAVYYCTQSYTLRTFGGGTKVEIK |  |
| 1.24 fold | 0.99 fold | 2.02 nM | 21200 | hu147E2-L2H4 (antibody, V domains shown, humanized 147E11E2; also called hu14E2-L2H4) VH: EVQLVQSGAEVKKPGSSVKVSCKASGYTFTSYWMHWVRQAPGQGLEWIGNINPSNGATNYNEKFKSRATLTVDKSTSTAYMELSSLRSEDTAVYYCARDRSSQYYFDYWGQGTTVTVSS VL: DIVMTQSPDSLAVSLGERATINCKSSQSLLNSRSRKNYLAWYQQKPGQSPKLLIYWASTRESGVPDRFSGSGSGTDFTLTISSLQAEDVAVYYCTQSYTLRTFGGGTKVEIK |  |
| 1.21 fold | 0.92 fold | 1.31 nM | 18700 | hu147E2-L1H4 (antibody, V domains shown, humanized 147E11E2; also called hu14E2-L1H4) VH: EVQLVQSGAEVKKPGSSVKVSCKASGYTFTSYWMHWVRQAPGQGLEWIGNINPSNGATNYNEKFKSRATLTVDKSTSTAYMELSSLRSEDTAVYYCARDRSSQYYFDYWGQGTTVTVSS VL: DIVMTQSPDSLAVSLGERATINCKSSQSLLNSRSRKNYLAWYQQKPGQPPKLLIYWASTRESGVPDRFSGSGSGTDFTLTISSLQAEDVAVYYCTQSYTLRTFGGGTKVEIK |  |
| 1.65 fold | 0.78 fold | 1.86 nM | 21000 | hu147E2-L2H3 (antibody, V domains shown, humanized 147E11E2; also called hu14E2-L2H3) VH: EVQLVQSGAEVKKPGSSVKVSCKASGYTFTSYWMHWVRQAPGQGLEWMGNINPSNGATNYNEKFKSRVTLTVDKSTSTAYMELSSLRSEDTAVYYCARDRSSQYYFDYWGQGTTVTVSS VL: DIVMTQSPDSLAVSLGERATINCKSSQSLLNSRSRKNYLAWYQQKPGQSPKLLIYWASTRESGVPDRFSGSGSGTDFTLTISSLQAEDVAVYYCTQSYTLRTFGGGTKVEIK |  |
